The text below walks through data of US11110171B2, “PD-1 related cancer therapy” (New York University, priority 2017, dated 2021).

The series concerns the target T1, SHP2PTP (GST tagged SHP2 catalytic domain) (Homo sapiens, UniProt Q06124).
T1 construct: a fixed amount of purified GST-WT SHP2 catalytic domain (0.2 ug) was incubated with variable concentrations; purchased Abcam 42578
T1 sequence (Q06124 247-517 limits assumed): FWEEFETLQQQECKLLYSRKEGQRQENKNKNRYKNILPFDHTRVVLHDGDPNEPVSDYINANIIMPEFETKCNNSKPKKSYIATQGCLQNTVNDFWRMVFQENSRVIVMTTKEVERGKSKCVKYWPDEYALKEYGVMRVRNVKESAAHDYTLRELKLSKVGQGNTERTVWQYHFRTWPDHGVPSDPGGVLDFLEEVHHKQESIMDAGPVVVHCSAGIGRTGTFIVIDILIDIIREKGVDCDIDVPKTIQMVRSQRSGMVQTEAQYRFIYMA
The series is described as follows: Malachite Green phosphatase assay of SHP2 catalytic domain with phosphotyrosyl peptide substrates. Type of series: biochemical. To be noted: for increase of Km of SHP2-mediated dephosphorylation in the presence of SAP: SAP 1 uM or 10 uM. As for the experimental part: FIG. 4. SAP inhibits SHP2 activity. […] At this time, the cells were harvested, and analyzed by immunoblotting, as indicated. (b) Jurkat T cells, transfected with siRNA for SAP (SAP KD) and non-targeting control (Control), were treated with pervanadate to induce maximal phosphorylation, followed by five serial washes, lysis and diafiltration to remove the drug and to exchange the buffer to a phosphatase-compatible buffer. SHP2^PTP (GST tagged SHP2 catalytic domain) was then added to the cell lysates for one hour, at the indicated concentrations, followed by immunoblotting with anti-phosphotyrosine antibody (4G10). (c) Densitometry values of all the phophotyrosine containing proteins shown at b. All values are relative to the baseline condition (without SHP2^PTP). […] (e-g) Enzymatic activity of SHP2^PTP was measured using a Malachite Green assay, with p60-SRC (e), SLAMF5 Y279 (f), CD3 Y142 (g), CD28 Y172 (h), and CD28 Y190 (i) peptides as substrates. Substrate titrations of SHP2P (dark circles) at baseline (control), or in the presence of SAP 1 uM (white circles) or SAP 10 uM (crossed circles) are shown. Curves are fitted using the Michelis-Menten equation and derived Km values are shown. The data points represent the mean of three measurements. (j) A diagram describing the shielding model. Data are represented as mean±SEM. * or ** represent significant differences between the denoted group and the anti-CD3 treated cells in a, or between SAP deficient cells and control cells in e; * <0.05, ** P<0.01, n=4, unpaired t test.
First, SAP could bind SHP2 and directly block the SHP2 catalytic site, or alternatively, SAP might not bind to SHP2, but rather could bind to its substrates and thereby block the interaction between SHP2 and its enzymatic substrates. […] To test the effect of SAP on SHP2 mediated dephosphorylation events, we measured SHP2-mediated dephosphorylation of p60-SRC Y416 (FIG. 4e), SLAMF5 Y279 (FIG. 4f), and CD3 Y142 (FIG. 4g) phosphotyrosyl peptides by Malachite Green assays. […]
To determine kinetic parameters, a fixed amount of purified GST-WT SHP2 catalytic domain was incubated with variable concentrations of substrates in (GenScript) in PTP assay buffer (Phosphatase assay kit; Upstate 17-313). […] release was quantified by adding Malachite Green (Malachite Green phosphatase detection kit; R&D DY996).
293T cells were transfected with pMSCV-SHP2, pMSCV empty vector, PD1-WT-GFP, PD1-Y223F-GFP or PD1-Y248F-GFP for 48 hours, followed by pervanadate treatment and immunoprecipitation using anti-GFP mAb-Agarose. The anti-GFP mAb-Agarose beads that were used for immunoprecipitation were then used for a pull-down of the SHP2/null transfected cells, and phosphatase activity on the beads was assessed using pNPP (Sigma). […]

B1: SAP: Recombinant human SAP (His tagged), signaling lymphocytic activation molecule-associated protein, purchased from Abcam (protein, UniProt O60880 1-128, looked up)
SH2 domain-containing protein …: MDAVAVYHGKISRETGEKLLLATGLDGSYLLRDSESVPGVYCLCVLYHGYIYTYRVSQTETGSWSAETAPGVHKRYFRKIKNLISAFQKPDQGIVIPLQYPVEKKSSARSTQGTTGIREDPDVCLKAP
modifications: His tag
For the molecule B1, for the setting “all three phosphotyrosyl peptides (p60-SRC, SLAMF5, CD3)”, the “Vmax of SHP2-mediated dephosphorylation in the presence of SAP” value is given as “unaffected”. Also, the “increase of Km of SHP2-mediated dephosphorylation in the presence of SAP” value (substrate phosphorylated CD3 Y142 peptide) is listed as 2-3 fold and the “increase of Km of SHP2-mediated dephosphorylation in the presence of SAP” value (substrate phosphorylated SLAMF5 Y279 peptide) was 2-3 fold. In addition, for the setting “substrates CD28 Y173 and CD28 Y190 peptides”, the “inhibition of SHP2-mediated dephosphorylation of the tail of CD28” value is given as “predominantly inhibited dephosphorylation of CD28 Y173 over CD28 Y190”.
